Source: patent publication US20250076311A1 (Chugai, published 2025)

Tests used:
[1] = biological target: T1, human FcγRIIb extracellular domain, His-tagged (human, UniProt P31994 43-217); assay: SPR (Biacore), 25C, FcgR bound per antibody captured
T1 construct: also called human FcgRIIb
T1 sequence: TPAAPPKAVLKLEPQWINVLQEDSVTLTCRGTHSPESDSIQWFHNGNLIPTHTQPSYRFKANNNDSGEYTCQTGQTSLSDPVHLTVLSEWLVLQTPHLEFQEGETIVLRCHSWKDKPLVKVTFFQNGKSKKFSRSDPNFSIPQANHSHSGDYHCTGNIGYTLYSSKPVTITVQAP

[2] = biological target: T2, human FcγRIIaR extracellular domain, His-tagged (human, UniProt P12318 34-217); assay: as above
T2 construct: also called human FcgRIIaR; FcγRIIa type R
T2 chain: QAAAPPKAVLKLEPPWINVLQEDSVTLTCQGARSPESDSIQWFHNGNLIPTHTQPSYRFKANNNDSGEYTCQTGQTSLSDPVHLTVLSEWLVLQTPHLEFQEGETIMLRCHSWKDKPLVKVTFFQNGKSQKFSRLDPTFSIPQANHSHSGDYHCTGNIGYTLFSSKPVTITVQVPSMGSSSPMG

[3] = biological target: T3, human FcγRIIIaV extracellular domain, His-tagged (human, UniProt P08637 17-208); assay: as above
T3 construct: also called human FcgRIIIaV

[4] = biological target: T4, human FcγRIIaH extracellular domain, His-tagged (human, UniProt P12318 34-217); assay: as above
T4 construct: also called human FcgRIIaH; FcγRIIa type H
T4 sequence: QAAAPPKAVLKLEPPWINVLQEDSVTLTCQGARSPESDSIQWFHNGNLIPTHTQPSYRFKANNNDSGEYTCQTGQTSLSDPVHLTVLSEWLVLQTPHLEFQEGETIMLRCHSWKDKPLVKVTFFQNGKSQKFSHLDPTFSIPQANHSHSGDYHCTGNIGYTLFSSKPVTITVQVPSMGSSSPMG

[5] = biological target: T5, cynomolgus monkey FcγRIIIaS extracellular domain with C-terminal His-tag (cynomolgus monkey, UniProt A3RFZ7 21-206 (rhesus entry)); assay: SPR (BIACORE), antibody captured, FcgR analyte
T5 construct: also called cyno FcgRIIIaS; cynoFcγRIIIaS; not shown: His-tag added to the C-terminus

[6] = biological target: T6, cynomolgus monkey FcγRIIa1 extracellular domain with C-terminal His-tag (cynomolgus monkey); assay: SPR (BIACORE), antibody captured, FcgR analyte
T6 construct: also called cyno FcgRIIa1; cynoFcγRIIa1; not shown: His-tag added to the C-terminus
T6 chain: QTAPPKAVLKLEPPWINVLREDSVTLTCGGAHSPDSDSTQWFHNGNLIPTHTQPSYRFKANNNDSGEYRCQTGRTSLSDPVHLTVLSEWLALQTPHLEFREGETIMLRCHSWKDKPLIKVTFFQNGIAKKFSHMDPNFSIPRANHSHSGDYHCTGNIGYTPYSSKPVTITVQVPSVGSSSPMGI

[7] = biological target: T7, cynomolgus monkey FcγRIIa3 extracellular domain with C-terminal His-tag (cynomolgus monkey); assay: SPR (BIACORE), antibody captured, FcgR analyte
T7 construct: also called cyno FcgRIIa3; cynoFcγRIIa3; not shown: His-tag added to the C-terminus
T7 chain: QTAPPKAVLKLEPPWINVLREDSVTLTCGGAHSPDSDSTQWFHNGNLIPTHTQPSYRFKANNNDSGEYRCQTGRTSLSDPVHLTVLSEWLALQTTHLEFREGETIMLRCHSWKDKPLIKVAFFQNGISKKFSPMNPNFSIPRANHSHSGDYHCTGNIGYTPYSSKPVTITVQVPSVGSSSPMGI

[8] = biological target: T8, human FcγRIIaH extracellular domain with C-terminal His-tag (human, UniProt P12318 34-217); assay: SPR (BIACORE), antibody captured, FcgR analyte
T8 construct: also called human FcgRIIaH; FcγRIIa type H; not shown: His-tag added to the C-terminus
T8 sequence: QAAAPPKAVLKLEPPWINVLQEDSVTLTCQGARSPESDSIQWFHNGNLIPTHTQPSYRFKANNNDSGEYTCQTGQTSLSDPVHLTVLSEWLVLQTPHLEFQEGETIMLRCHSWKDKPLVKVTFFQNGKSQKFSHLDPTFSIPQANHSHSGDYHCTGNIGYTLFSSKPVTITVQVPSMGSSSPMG

[9] = biological target: T5, cynomolgus monkey FcγRIIIaS …; assay: SPR (BIACORE); KD of SG1 / KD of variant
[10] = biological target: T9, human FcγRIIIaV extracellular domain with C-terminal His-tag (human, UniProt P08637 17-208); assay: SPR (BIACORE), antibody captured, FcgR analyte
T9 construct: also called human FcgRIIIaV; not shown: His-tag added to the C-terminus

[11] = biological target: T10, human FcγRIIaR extracellular domain with C-terminal His-tag (human, UniProt P12318 34-217); assay: SPR (BIACORE), antibody captured, FcgR analyte
T10 construct: also called human FcgRIIaR; FcγRIIa type R; not shown: His-tag added to the C-terminus
T10 chain: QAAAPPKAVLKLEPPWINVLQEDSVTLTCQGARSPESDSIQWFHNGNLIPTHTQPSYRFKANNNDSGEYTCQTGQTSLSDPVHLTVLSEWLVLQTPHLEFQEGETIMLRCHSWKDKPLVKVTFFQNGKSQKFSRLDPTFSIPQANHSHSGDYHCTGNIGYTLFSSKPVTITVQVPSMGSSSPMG

T3 sequence (P08637 17-208 F176V): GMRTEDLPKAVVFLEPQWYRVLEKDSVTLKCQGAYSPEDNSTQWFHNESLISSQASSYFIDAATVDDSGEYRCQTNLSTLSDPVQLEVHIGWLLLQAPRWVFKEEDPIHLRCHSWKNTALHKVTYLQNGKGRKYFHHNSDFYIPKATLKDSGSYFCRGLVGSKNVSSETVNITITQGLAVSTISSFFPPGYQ
T5 sequence (A3RFZ7 21-206): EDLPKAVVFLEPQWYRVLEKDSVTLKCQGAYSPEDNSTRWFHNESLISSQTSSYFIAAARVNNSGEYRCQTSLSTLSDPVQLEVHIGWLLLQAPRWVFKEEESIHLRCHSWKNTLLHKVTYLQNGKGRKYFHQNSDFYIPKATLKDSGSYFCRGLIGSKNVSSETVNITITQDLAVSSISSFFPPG
T9 sequence (P08637 17-208 F176V): as the sequence (P08637 17-208 F176V) above

B1: GpH7-B3 N325E / GpL16-k0 (antibody, human IgG1, kappa)
heavy: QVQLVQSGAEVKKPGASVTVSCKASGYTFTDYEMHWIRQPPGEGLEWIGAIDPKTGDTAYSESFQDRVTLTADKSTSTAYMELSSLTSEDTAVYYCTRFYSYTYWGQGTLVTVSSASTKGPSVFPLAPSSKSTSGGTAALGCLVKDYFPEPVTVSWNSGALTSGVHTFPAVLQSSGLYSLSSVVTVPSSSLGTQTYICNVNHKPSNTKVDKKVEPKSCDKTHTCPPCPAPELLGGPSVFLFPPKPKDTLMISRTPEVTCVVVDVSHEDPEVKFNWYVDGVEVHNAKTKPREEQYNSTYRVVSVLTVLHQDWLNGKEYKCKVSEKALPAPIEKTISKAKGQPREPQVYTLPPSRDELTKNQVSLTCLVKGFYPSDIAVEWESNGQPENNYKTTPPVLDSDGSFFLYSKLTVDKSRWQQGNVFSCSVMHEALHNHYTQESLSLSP
light: DIVMTQSPLSLPVTPGEPASISCQASESLVHSNRNTYLHWYLQKPGQSPQLLIYKVSNRFSGVPDRFSGSGSGTDFTLKISRVEAEDVGVYYCSQNTHVPPTFGQGTKVEIERTVAAPSVFIFPPSDEQLKSGTASVVCLLNNFYPREAKVQWKVDNALQSGNSQESVTEQDSKDSTYSLSSTLTLSKADYEKHKVYACEVTHQGLSSPVTKSFNRGEC
notes: also called B3 variant N325E
Binding to human FcgRs (parent B3 = 100) [1]: 40 | Binding to human FcgRs (parent B3 = 100) [2]: 13 | Binding to human FcgRs (parent B3 = 100) [3]: 4 | Binding to human FcgRs (parent B3 = 100) [4]: 49

B2: GpH7-B3 P238Q / GpL16-k0 (antibody, human IgG1, kappa)
heavy: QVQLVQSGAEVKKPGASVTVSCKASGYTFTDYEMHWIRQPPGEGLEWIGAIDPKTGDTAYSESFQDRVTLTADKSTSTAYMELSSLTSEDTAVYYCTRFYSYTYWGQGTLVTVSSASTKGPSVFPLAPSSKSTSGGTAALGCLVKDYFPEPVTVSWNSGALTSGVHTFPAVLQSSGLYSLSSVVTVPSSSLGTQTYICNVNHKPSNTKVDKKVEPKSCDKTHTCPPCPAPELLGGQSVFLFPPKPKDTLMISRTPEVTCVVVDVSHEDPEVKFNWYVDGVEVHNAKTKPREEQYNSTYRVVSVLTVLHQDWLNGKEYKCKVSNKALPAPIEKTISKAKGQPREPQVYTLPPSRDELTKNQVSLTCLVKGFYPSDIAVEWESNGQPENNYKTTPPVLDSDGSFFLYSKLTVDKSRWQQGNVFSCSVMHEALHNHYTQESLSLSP
light: DIVMTQSPLSLPVTPGEPASISCQASESLVHSNRNTYLHWYLQKPGQSPQLLIYKVSNRFSGVPDRFSGSGSGTDFTLKISRVEAEDVGVYYCSQNTHVPPTFGQGTKVEIERTVAAPSVFIFPPSDEQLKSGTASVVCLLNNFYPREAKVQWKVDNALQSGNSQESVTEQDSKDSTYSLSSTLTLSKADYEKHKVYACEVTHQGLSSPVTKSFNRGEC
notes: also called B3 variant P238Q
Binding to human FcgRs (parent B3 = 100) [1]: 43 | Binding to human FcgRs (parent B3 = 100) [2]: 4 | Binding to human FcgRs (parent B3 = 100) [3]: -1 | Binding to human FcgRs (parent B3 = 100) [4]: 19

B3: GpH7-B3 S267H / GpL16-k0 (antibody, human IgG1, kappa)
heavy: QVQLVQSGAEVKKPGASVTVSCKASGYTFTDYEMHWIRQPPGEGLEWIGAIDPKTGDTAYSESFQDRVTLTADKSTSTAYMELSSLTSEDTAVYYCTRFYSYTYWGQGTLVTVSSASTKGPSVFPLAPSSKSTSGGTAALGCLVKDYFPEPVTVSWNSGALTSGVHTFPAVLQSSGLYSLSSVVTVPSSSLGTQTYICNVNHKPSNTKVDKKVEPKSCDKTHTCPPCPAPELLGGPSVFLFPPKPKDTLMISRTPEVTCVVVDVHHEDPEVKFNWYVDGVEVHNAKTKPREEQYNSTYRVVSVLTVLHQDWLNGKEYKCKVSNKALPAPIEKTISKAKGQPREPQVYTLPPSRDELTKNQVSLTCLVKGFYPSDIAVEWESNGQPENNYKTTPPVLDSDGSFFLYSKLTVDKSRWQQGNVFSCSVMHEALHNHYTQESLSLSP
light: DIVMTQSPLSLPVTPGEPASISCQASESLVHSNRNTYLHWYLQKPGQSPQLLIYKVSNRFSGVPDRFSGSGSGTDFTLKISRVEAEDVGVYYCSQNTHVPPTFGQGTKVEIERTVAAPSVFIFPPSDEQLKSGTASVVCLLNNFYPREAKVQWKVDNALQSGNSQESVTEQDSKDSTYSLSSTLTLSKADYEKHKVYACEVTHQGLSSPVTKSFNRGEC
notes: also called B3 variant S267H
Binding to human FcgRs (parent B3 = 100) [1]: 42 | Binding to human FcgRs (parent B3 = 100) [2]: 3 | Binding to human FcgRs (parent B3 = 100) [3]: 1 | Binding to human FcgRs (parent B3 = 100) [4]: 27

B4: GpH7-B3 S267L / GpL16-k0 (antibody, human IgG1, kappa)
heavy: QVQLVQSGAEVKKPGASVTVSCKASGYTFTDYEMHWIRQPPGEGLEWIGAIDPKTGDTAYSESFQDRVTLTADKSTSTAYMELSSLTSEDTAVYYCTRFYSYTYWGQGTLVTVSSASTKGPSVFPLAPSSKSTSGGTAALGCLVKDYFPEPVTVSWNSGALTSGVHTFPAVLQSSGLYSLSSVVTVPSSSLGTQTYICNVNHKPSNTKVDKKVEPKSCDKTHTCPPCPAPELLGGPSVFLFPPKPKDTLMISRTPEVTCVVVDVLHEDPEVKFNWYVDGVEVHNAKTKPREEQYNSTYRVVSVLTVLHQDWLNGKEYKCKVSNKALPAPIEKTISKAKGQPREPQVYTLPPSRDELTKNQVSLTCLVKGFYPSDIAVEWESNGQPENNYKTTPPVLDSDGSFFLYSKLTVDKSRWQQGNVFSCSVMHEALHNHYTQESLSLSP
light: DIVMTQSPLSLPVTPGEPASISCQASESLVHSNRNTYLHWYLQKPGQSPQLLIYKVSNRFSGVPDRFSGSGSGTDFTLKISRVEAEDVGVYYCSQNTHVPPTFGQGTKVEIERTVAAPSVFIFPPSDEQLKSGTASVVCLLNNFYPREAKVQWKVDNALQSGNSQESVTEQDSKDSTYSLSSTLTLSKADYEKHKVYACEVTHQGLSSPVTKSFNRGEC
notes: also called B3 variant S267L
Binding to human FcgRs (parent B3 = 100) [1]: 112 | Binding to human FcgRs (parent B3 = 100) [2]: 3 | Binding to human FcgRs (parent B3 = 100) [3]: 2 | Binding to human FcgRs (parent B3 = 100) [4]: 63

B5: M103205H795-MY105/M103202L889-SK1 (antibody, human IgG1, kappa, name in EU numbering)
heavy: QVTLKESGPVLVKPTETLTLTCTVSGIDLSHDDISWVRQAPGKGLEWVGIISYAGSTYYASWAKGRLTISKDTSKNQVVLTMTNMDPVDTATYYCARGVPAYSHGGDLWGQGTLVTVSSASTKGPSVFPLAPSSKSTSGGTAALGCLVKDYFPEPVTVSWNSGALTSGVHTFPAVLQSSGLYSLSSVVTVPSSSLGTQTYICNVNHKPSNTKVDKKVEPKSCDKTHTCPPCPAPELLNGPVVFLFPPKPKDTLMISRTPEVTCVVVDVSEEDPEVKFNWYVDGVEVHNAKTKPREEQYNSTYRVVSVLTVLHQDWLNGKEYKCKVSNKALPAPIEKTISKAKGQPREPQVYTLPPSREEMTKNQVSLTCLVKGFYPSDIAVEWESNGQPENNYKTTPMVLDSDGSFFLYSKLTVDKSRWQQGNVFSCSVMHEALHNHYTQKSLSLSP
light: DIVMTQSPATLSLSPGERATLSCTSSQSVYHANWLSWFQQKPGQPPKLLIYWASTLAYGVPSRFSGSGSGTDFTLTISSLQPEDAATYYCAGGYGGGRYAFGQGTKVEIKRTVAAPSVFIFPPSDEQLKSGTASVVCLLNNFYPREAKVQWKVDNALQSGNSQESVTEQDSKDSTYSLSSTLTLSKADYEKHKVYACEVTHQGLSSPVTKSFNRGEC
notes: Fc variant of MS1032LO06-SG1; positions in EU numbering
Kd [5]: 1.3 µM | Kd [6]: 1.2 µM | Kd [7]: 1.5 µM | Kd [8]: 1.5 µM | KD fold (SG1 = 1) [9]: 0.28 fold

B6: M103205H795-MY199/M103202L889-SK1 (antibody, human IgG1, kappa, name in EU numbering)
heavy: QVTLKESGPVLVKPTETLTLTCTVSGIDLSHDDISWVRQAPGKGLEWVGIISYAGSTYYASWAKGRLTISKDTSKNQVVLTMTNMDPVDTATYYCARGVPAYSHGGDLWGQGTLVTVSSASTKGPSVFPLAPSSKSTSGGTAALGCLVKDYFPEPVTVSWNSGALTSGVHTFPAVLQSSGLYSLSSVVTVPSSSLGTQTYICNVNHKPSNTKVDKKVEPKSCDKTHTCPPCPAPELLNGPSVFLFPPKPKDTLMISRTPEVTCVVVDVSEEDPEVKFNWYVDGVEVHNAKTKPREEQYNSTYRVVSVLTVLHQDWLNGKEYKCKVSNKALPKPIEKTISKAKGQPREPQVYTLPPSREEMTKNQVSLTCLVKGFYPSDIAVEWESNGQPENNYKTTPPVLDSDGSFFLYSKLTVDKSRWQQGNVFSCSVMHEALHNHYTQKSLSLSP
light: DIVMTQSPATLSLSPGERATLSCTSSQSVYHANWLSWFQQKPGQPPKLLIYWASTLAYGVPSRFSGSGSGTDFTLTISSLQPEDAATYYCAGGYGGGRYAFGQGTKVEIKRTVAAPSVFIFPPSDEQLKSGTASVVCLLNNFYPREAKVQWKVDNALQSGNSQESVTEQDSKDSTYSLSSTLTLSKADYEKHKVYACEVTHQGLSSPVTKSFNRGEC
notes: as for B5
Kd [10]: 13 µM | Kd [5]: 0.041 µM | Kd [6]: 1.9 µM | Kd [8]: 1.1 µM

B7: M103205H795-MY289/M103202L889-SK1 (antibody, human IgG1, kappa, name in EU numbering)
heavy: QVTLKESGPVLVKPTETLTLTCTVSGIDLSHDDISWVRQAPGKGLEWVGIISYAGSTYYASWAKGRLTISKDTSKNQVVLTMTNMDPVDTATYYCARGVPAYSHGGDLWGQGTLVTVSSASTKGPSVFPLAPSSKSTSGGTAALGCLVKDYFPEPVTVSWNSGALTSGVHTFPAVLQSSGLYSLSSVVTVPSSSLGTQTYICNVNHKPSNTKVDKKVEPKSCDKTHTCPPCPAPELLNGPSVFLFPPKPKDTLMISRTPEVTCVVVDVSHEDPEVKFNWYVDGVEVHNAKTKPREEQYNSTYRVVSVLTVLHQDWLNGKEYKCKVSNKALPKPIEKTISKAKGQPREPQVYTLPPSREEMTKNQVSLTCLVKGFYPSDIAVEWESNGQPENNYKTTPMVLDSDGSFFLYSKLTVDKSRWQQGNVFSCSVMHEALHNHYTQKSLSLSP
light: DIVMTQSPATLSLSPGERATLSCTSSQSVYHANWLSWFQQKPGQPPKLLIYWASTLAYGVPSRFSGSGSGTDFTLTISSLQPEDAATYYCAGGYGGGRYAFGQGTKVEIKRTVAAPSVFIFPPSDEQLKSGTASVVCLLNNFYPREAKVQWKVDNALQSGNSQESVTEQDSKDSTYSLSSTLTLSKADYEKHKVYACEVTHQGLSSPVTKSFNRGEC
notes: as for B5
Kd [11]: 3.5 µM | Kd [5]: 5.2 µM | Kd [6]: 1.5 µM | Kd [7]: 8.6 µM
